# Molecular target: T1, human PD-L1-Fc chimeric protein (human, UniProt Q9NZQ7 19-238)
# T1 construct: extracellular domain; Recombinant protein; also called soluble PD-L1-Fc; not shown: Fc region of human IgG1, fused at the C-terminus
# Test: flow cytometry of yeast-displayed clone with soluble PD-L1-Fc (S5.1 tested at 0.5 nM only, see paragraph 221)
# Protocol: (§1) Binding was allowed to proceed for 3 hours at room temperature at which time yeast were pelleted, washed twice to remove unbound PD-L1-Fc, and stained with a fluorescently labeled secondary antibody to detect the Fc of bound PD-L1. Secondary labeling was performed for 30 minutes on ice, after which yeast were pelleted and washed as described. Yeast samples were then analyzed on a flow cytometer to quantify PD-L1-Fc binding.
# (§2) FIG. 4 provides a graph of the FACS data.
# T1 sequence (Q9NZQ7 19-238, change not shown): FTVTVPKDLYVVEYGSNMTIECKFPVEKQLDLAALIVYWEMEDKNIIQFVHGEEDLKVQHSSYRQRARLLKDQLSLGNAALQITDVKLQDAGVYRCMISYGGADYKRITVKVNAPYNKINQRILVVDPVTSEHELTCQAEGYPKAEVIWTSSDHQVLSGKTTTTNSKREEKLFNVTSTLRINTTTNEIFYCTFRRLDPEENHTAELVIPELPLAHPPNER
row,binding result,Binder
1,binds,"PD-1 variant polypeptide, clone S5.1 (receptor) NPPTFSPALLVVTEGDNATFTCSFSNTSESFVLNWYRMSPSNQTDKLAAFPEDRGQLGQDSRFRVTQLPNGRDFHMSVVRARRSDSGTYLCSAIVLAPKIQIKESLRVELRVTERRAE"

# Molecular target: T1, human PD-L1-Fc chimeric protein
# Test: flow cytometry of yeast-displayed clone with soluble PD-L1-Fc at 5 nM or 0.5 nM
# Protocol: as §1, §2
row,binding result,Binder
1,binds,"PD-1 variant polypeptide, clone S5.4 (receptor) NPPTFSPALLVVTEGDNATFTCSFSNTSESFVLNWYRMSPSNQTDKLAAFPEDRGQPGRDSRFRVTQLPNGRDFRMSVVRARRSDSGTYLCSAILLAPKIQIKESLGAELRVTEKGAE"

# Molecular target: T1, human PD-L1-Fc chimeric protein
# Test: flow cytometry of yeast-displayed clone, FIG. 2 (0.5 nM PD-L1-Fc) and FIG. 3 (5 nM, also bound strongly)
# Protocol: as §1, §2
row,binding result,Binder
1,binds,"PD-1 variant polypeptide, clone S6.8.3 (receptor) NPPTFSPALLVVTEGDNATFTCSFSNTSESFVLNWYRMSPSNQTDKLAAFPEDRGQLGQASRFRVTQLPNGRDFHMSVVRARRSDSGTYLCSAILLAPRIQIRESLRVELRVTERRAE"
2,binds,"PD-1 variant polypeptide, clone S6.12.6 (receptor, not shown: large carriers) NPPTFSPALLVVTEGDNATFTCSFSNTSESFVLNWYRISPSNQTDKLAAFPEDRGQLGQDSRFRVTQLPNGRDFHMSVVRARRSDSGTYLCSAILLAPRIQIRESLGVELRVTEKRAE"
3,binds,"PD-1 variant polypeptide, clone S5.7 (receptor) NPPTFSPALLVVTEGDNATFTCSFSNTSESFVLNWYRMSPSNQTDKLAAFPEDRGQLGQDSRFRVTQLPNGRDFHMSVVRARRSDSGTYLCSAILLAPKIQIKESLRVELRVTERRAE"
4,binds,"PD-1 variant polypeptide, clone S6.12.9 (receptor) NPPTFSPALLVVTEGDNATFTCSFSNTSESFVLNWYRMSPSNQTDKLAAFPEDRGQLGQDSRFRVTQLPNGRDFHMSVVRARRSDSGTYLCSAIVLAPRIQIKESLRVELRVTERRAE"

# Molecular target: T1, human PD-L1-Fc chimeric protein
# Test: yeast display, clone sequenced from the pool after five FACS sorts on PD-L1-Fc; measured as a pool, not singly
# Protocol: In these sorts, yeast were incubated at room temperature in phosphate-buffered saline with 1 mg/ml BSA (PBSA) and with the following nominal concentrations of PD-L1-Fc: for sort 1, 250 nM; sort 2, 20 nM; sort 3, 1 nM; sort 4, 0.1 nM; sort 5, 0.1 nM. PD-L1 Fc refers to a human PD-L1-Fc chimeric protein. This recombinant protein contains the extracellular domain of human PD-L1 fused to the Fc region of human IgG1 at the C-terminus. After incubation with PD-L1-Fc, yeast were pelleted, washed, and resuspended in PBSA with chicken anti-cMYC for 1 hour at 4° C. After primary antibody incubation, yeast were once again washed and secondary labeling was performed on ice for 30 minutes using PBSA with goat anti-chicken Alexa Fluor 555 and goat anti-human IgG Alexa Fluor 488. Each sort was conducted such that the 1-3% of clones with the highest PD-L1 binding/cMyc expression ration were selected, thereby enriching the library for clones with the highest affinity. In the first round, 1×10⁸ cells were screened, and in subsequent rounds a minimum of ten-fold the number of clones collected in the prior sort round were screened to ensure adequate sampling of diversity.
# Samples were analyzed using a FACScalibur flow cytometer and data was analyzed using FlowJo software.
row,Binder,binding result
1,"PD-1 variant polypeptide, clone S5.2s (receptor) NPPTFSPALLVVTEGDNATFTCSFSNTSESFVLNWYRMSPSSQTDKLAAFPEDRSQPGQDSRFRVTQLPNGRDFHMSVVRARRSDSGTYLCGVISLAPKVQIKESLRAELRVIERRAE",binds
2,"PD-1 variant polypeptide, clone S5.2q (receptor) SPPTLSPALLVVTEGDNVTFTCSFSNTSESFVLNWYRMSPSNQTDKLAAFPEDRGQPGRDSRFRVTQLPNGRDFHMSVVRARRNDSGTYLCGAISLAPKVQIKESLRAELRVTERRAE",binds
3,"PD-1 variant polypeptide, clones S5.1j, S5.1o (receptor) NPPTFSPALLVVTEGDNATFTCSFSNTSESFVLNWYRMSPSNQTDKLAAFPEDRSQPGQDSRFRVTQLPNGRDFHMSVVRARRNDSGTYLCGAISLAPKVQIKESLRVELRVTERRAE",binds
4,"PD-1 variant polypeptide, clone S5.1g (receptor) NPPTFSPALLVVTEGDNATFTCSFSNASESFVLNWYRMSPSDQTDKLAAFPEDRGQLGQDSRFRVTQLPNGRDFHMSVVRARRNDSGTYLCGAISLAPKIQIKESLRAELRVTERRAE",binds
5,"PD-1 variant polypeptide, clone S5.1n (receptor) NPPTFSPALLVVTEGDNATFTCSFSNTSESFVLNWYRMSPSNQTDKLAAFPEDRSQPGQDSRFRVTQLPNGRDFHMSVVRARGDDSGTYLCGAISLAPKVQIKESLRVELRVTERRAE",binds

# Continued, values first:
row,binding result,Binder
1,binds,"PD-1 variant polypeptide, clone S5.1e (receptor) NPPTFSPALLVVTEGDNATFTCSFSNTSESFVLNWYRMSPSNQTDKLAAFPEDRSQPGQDSRFRVTQLPNGRDFHMSVVRARRSDSGTYLCGAISLAPKVQIKESLRAELRVIERRAE"
2,binds,"PD-1 variant polypeptide, clone S5.2d (receptor) NPPTFSPALLVVTEGDNATFTCSFSNTSESFVLNWYRMSPSDQTDKLAAFPEDRSRPGQDSRFRVTQLPNGRDFHMSVVGARRNDSGTYLCGAISLAPKVQIRESLRAELRVTERRAE"
3,binds,"PD-1 variant polypeptide, clone S5.1q (receptor) NPPTFSPALLVVTEGDNATFTCSFSNTSESFVLNWYRMSPSNQTDKLAAFPEDRSQLGQDSRFRVTQLPNGRDFHMSVVRARRNDSGTYLCGAISLAPKVQIRESLRVELRVTERRAE"
4,binds,"PD-1 variant polypeptide, clone S5.1f (receptor) NPPTFSPALLVVTEGDNATFTCSFSNTSESFVLNWYRVSPSNQTDKLAAFPEDRSRPGQDSRFRVTRLPNGRDFHMSVVGARRSDSGTYLCGAISLAPKVQIKESLRAELRVTERRAE"
5,binds,"PD-1 variant polypeptide, clone S5.1i (receptor) NPPTFSPALLVVTEGDNATFTCSFSNTSESFVLNWYRMSPSNQTDKLAAFPEDRSQPGQDSRFRVTQLPNGRDFRMSVVRARRSDSGTYLCSAISLAPKVQIKESLRAELRVTERRAE"
6,binds,"PD-1 variant polypeptide, clone S5.1c (receptor) NPPTFSPALLVVTEGDNATFTCSFSNTSESFVLNWYRMSPSNQTDKLAAFPEDRGQPGQDSRFRVIQLPNGRDFHMSVVRARRNDSGTYLCGAISLAPKVQIKESLRAELRVTERRAE"
7,binds,"PD-1 variant polypeptide, clone S5.1p (receptor) DPPTFSPALLVVTEGDNATFTCSFSNTSESFVLNWYRMSPSNQTDKLAAFPEDRSQPGQDSRFRVTQLPNGRDFHMSVVRARRNDSGTYLCGAILLAPRIQIRESLGAELRVTEKGAE"
8,binds,"PD-1 variant polypeptide, clone S5.2i (receptor) NPPTFSPALLVVAEGDNATFTCSFSNTSESFVLNWYRMSPSNQTDKLAAFPEDRSQPGQDRRFRVTQLPSGRDFHMSVVRARRNDSGTYLCGAIFLAPRIQIKESLRAELRVTERRAE"
9,binds,"PD-1 variant polypeptide, clone S5.1k (receptor) DPPTFSPALLVVTEGDNATFTCSFSNTSESFVLNWYRMSPSNQTDKLAAFPEDRSQPGQDSRFRVTQLPNGRDFHMSVVRARRDDSGTYLCGAISLAPKIQIKESLRAELRVTERRAE"
